The values below come from patent US20070105152.

Like-named read-outs stand apart in the source and are kept apart here.

Series [1] relates to T1, AcGG(AcK)APRKQ.
T1 sequence: GGKAPRKQ

Series [2] relates to T2, AcGG(AcK)APR.
T2 sequence: GGKAPR

Series [3] deals with T3, AcTGG(AcK)APRK.
T3 sequence: TGGKAPRK

The subject of series [4] is T4, AcGG(AcK)APRK.
T4 sequence: GGKAPRK

Series [5] deals with T5, AcTGG(AcK)APR.
T5 sequence: TGGKAPR

In series [6] the test system is T6, AcSTGG(AcK)APR.
T6 sequence: STGGKAPR

Series [7] deals with T7, AcSTGG(AcK)AP.
T7 sequence: STGGKAP

The test system of series [8] is T8, AcTGG(AcK)AP.
T8 sequence: TGGKAP

For series [9], the system named is T9, AcKSTGG(AcK)AP.
T9 sequence: KSTGGKAP

The subject of series [10] is T10, AcGG(AcK)AP.
T10 sequence: GGKAP

For series [11], the target named is T11, AcSTGG(AcK)AP.
T11 chain: STGGKAP

Series [12] deals with T12, AcGG(AcK)APRK.
T12 chain: GGKAPRK

The target of series [13] is T13, AcGG(AcK)APRKQ.
T13 chain: GGKAPRKQ

Series [14] deals with T14, AcGG(AcK)AP.
T14 chain: GGKAP

Series [15] concerns the target T15, AcTGG(AcK)AP.
T15 chain: TGGKAP

Series [16] concerns the target T16, AcGG(AcK)APR.
T16 chain: GGKAPR

Series [17] addresses T17, AcKSTGG(AcK)AP.
T17 chain: KSTGGKAP

Series [18] has as its target T18, AcTGG(AcK)APRK.
T18 chain: TGGKAPRK

Series [19] addresses T19, AcTGG(AcK)APR.
T19 chain: TGGKAPR

Series [20] has as its target T20, AcSTGG(AcK)APR.
T20 chain: STGGKAPR

Trypanosoma brucei Sir2: the Relative kcat/Km (relative to AcTGG(AcK)APRK = 1) came to 1.43 with AcGG(AcK)APRKQ [1]; 1.18 in the series on AcGG(AcK)APR [2]; 1 in the series on AcTGG(AcK)APRK [3]; 1.82 in the series with AcGG(AcK)APRK [4]; 0.89 in the series on AcTGG(AcK)APR [5]; 1.39 with AcSTGG(AcK)APR [6]. In addition, the Relative kcat/Km (relative to AcTGG(AcK)APRK = 1) came out at 0.59 with AcSTGG(AcK)AP [7], 0.74 in the series with AcTGG(AcK)AP [8], 1.81 in the series on AcKSTGG(AcK)AP [9] and 1.27 with AcGG(AcK)AP [10].
Turning to yeast Sir2, the Relative kcat/Km (relative to AcTGG(AcK)APRK = 1) with AcGG(AcK)APRKQ [1] turned out to be 2.09; in the series on AcGG(AcK)APR [2], 2.53; in the series with AcTGG(AcK)APRK [3], 1; in the series with AcGG(AcK)APRK [4] it was 2.33; with AcTGG(AcK)APR [5], 1.72; in the series on AcSTGG(AcK)APR [6] it was 1.6. The Relative kcat/Km (relative to AcTGG(AcK)APRK = 1) was determined as 1.83 in the series on AcSTGG(AcK)AP [7], 1.62 in the series on AcTGG(AcK)AP [8], 2.12 in the series with AcKSTGG(AcK)AP [9] and 1.51 in the series with AcGG(AcK)AP [10].

B1: SIRT2 (protein)
chain: MAEPDPSHPLETQAGKVQEAQDSDSDSEGGAAGGEADMDFLRNLFSQTLSLGSQKERLLDELTLEGVARYMQSERCRRVICLVGAGISTSAGIPDFRSPSTGLYDNLEKYHLPYPEAIFEISYFKKHPEPFFALAKELYPGQFKPTICHYFMRLLKDKGLLLRCYTQNIDTLERIAGLEQEDLVEAHGTFYTSHCVSASCRHEYPLSWMKEKIFSEVTPKCEDCQSLVKPDIVFFGESLPARFFSCMQSDFLKVDLLLVMGTSLQVQPFASLISKAPLSTPRLLINKEKAGQSDPFLGMIMGLGGGMDFDSKKAYRDVAWLGECDQGCLALAELLGWKKELEDLVRREHASIDAQSGAGVPNPSTSASPKKSPPPAKDEARTTEREKPQ
Consider B1, for which the Relative kcat/Km (relative to AcTGG(AcK)APRK = 1) with AcSTGG(AcK)AP [11] amounted to 0.78; with AcGG(AcK)APRK [12], 0.68; with AcGG(AcK)APRKQ [13], 0.66; in the series with AcGG(AcK)AP [14], 0.56; with AcTGG(AcK)AP [15], 0.55; with AcGG(AcK)APR [16], 0.6. The Relative kcat/Km (relative to AcTGG(AcK)APRK = 1) was determined as 0.59 in the series with AcKSTGG(AcK)AP [17], 1 in the series with AcTGG(AcK)APRK [18], 0.72 with AcTGG(AcK)APR [19] and 0.93 in the series with AcSTGG(AcK)APR [20].
